This test concerns the target androgen receptor ligand binding domain (AR LBD) bound with DHT (chimp construct; LBD sequence stated identical to human). Nature of the test: X-ray cocrystal structure; surface area buried from both molecules on binding.
androgen receptor ligand binding domain (AR LBD) bound with DHT (chimp construct; LBD sequence stated identical to human), sequence (P10275 whole entry, the tested form may be a part): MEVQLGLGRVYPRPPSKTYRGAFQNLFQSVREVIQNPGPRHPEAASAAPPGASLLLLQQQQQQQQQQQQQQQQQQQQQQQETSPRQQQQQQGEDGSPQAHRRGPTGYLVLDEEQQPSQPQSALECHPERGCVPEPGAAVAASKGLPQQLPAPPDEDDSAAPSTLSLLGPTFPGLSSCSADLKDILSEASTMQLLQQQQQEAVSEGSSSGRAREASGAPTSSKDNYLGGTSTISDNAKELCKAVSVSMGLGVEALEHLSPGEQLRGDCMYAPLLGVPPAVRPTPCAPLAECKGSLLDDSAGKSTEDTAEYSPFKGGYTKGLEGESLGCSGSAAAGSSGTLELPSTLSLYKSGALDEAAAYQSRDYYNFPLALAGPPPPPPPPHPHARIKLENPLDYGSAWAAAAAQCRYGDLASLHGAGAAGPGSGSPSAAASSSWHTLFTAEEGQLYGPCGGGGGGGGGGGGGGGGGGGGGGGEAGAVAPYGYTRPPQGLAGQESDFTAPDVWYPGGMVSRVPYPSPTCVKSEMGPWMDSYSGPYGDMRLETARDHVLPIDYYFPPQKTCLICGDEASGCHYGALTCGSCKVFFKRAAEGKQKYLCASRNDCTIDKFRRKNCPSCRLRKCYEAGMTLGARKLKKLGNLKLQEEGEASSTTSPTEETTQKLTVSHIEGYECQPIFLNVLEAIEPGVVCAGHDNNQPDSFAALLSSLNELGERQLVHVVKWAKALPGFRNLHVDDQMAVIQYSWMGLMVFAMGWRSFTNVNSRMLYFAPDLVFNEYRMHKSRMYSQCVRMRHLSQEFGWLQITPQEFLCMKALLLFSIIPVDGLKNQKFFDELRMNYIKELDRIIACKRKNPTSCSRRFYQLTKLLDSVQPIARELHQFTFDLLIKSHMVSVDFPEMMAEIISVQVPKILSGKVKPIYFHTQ
As for SSNTPRFKEYFMQSR [coactivator-related peptide CRP-6], the buried surface area is 1230 Å^2. Molecule SRFADFFRNEGLSGSR [coactivator-related peptide CRP-5] yielded a buried surface area of 920 Å^2. Molecule SRWQALFDDGTDTSR [coactivator-related peptide CRP-2] returned a buried surface area of 963 Å^2. SSKFAALWDPPKLSR [coactivator-related peptide CRP-4]: the buried surface area was 930 Å^2. Next, SRWAEVWDDNSKVSR [coactivator-related peptide CRP-7]: 882 Å^2; SSRFESLFAGEKESR [coactivator-related peptide CRP-3]: 1020 A^2; SSRGLLWDLLTKDSR [coactivator-related peptide CRP-1]: 987 A^2.

The values above are taken from patent US20050202440A1.
